In the supplement of paper PMC10567573:

B1: YPEL3 (parent)
chain: SKPKTFQAYLDDCHRRYSCAHCRA
B2: SNX3 (parent)
chain: FLRQLPFRGDDGIFDDNFIEERKQ

Variants of: B1
Assay: protein stability index of a GFP-peptide fusion (GPS, HEK-293T) (PSI 1-6); higher = more stable
Conditions: c terminus: a fixed tail appended
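Also: lentivirally expressed fusions sorted by FACS into six bins by GFP to DsRed ratio, PSI derived from sequencing read proportions per bin multiplied by bin number.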

Protein stability index: each site, then its substitutions
K4: L 2.42 | A 2.47 | G 2.71 | D 1.86 | Y 2.04 | P 1.9 | R 1.86 | V 2.57 | Q 1.8 | W 1.59 | I 1.6 | H 2.59 | M 2.28 | N 1.87 | C 1.86 | T 1.74 | E 2.09 | S 2.5 | F 1.72
T5: D 2.94 | M 2.56 | V 2.05 | R 2.85 | A 2.46 | H 2.57 | Q 2.55 | F 1.84 | K 2.25 | S 1.77 | G 2.11 | I 2.75 | P 2.43 | L 2.37 | C 2.33 | Y 1.97 | E 3.37 | W 1.99 | N 2.53
K2: V 2.22 | M 1.7 | H 2 | L 1.85 | T 2.19 | E 1.63 | A 2.18 | W 2.58 | Y 1.85 | F 1.88 | N 2.34 | R 1.89 | P 1.95 | I 1.63 | C 2.38 | Q 2.31 | G 2.34 | D 2.89 | S 1.8
A8: E 1.92 | G 1.91 | C 2.32 | D 1.54 | F 1.78
F6: Y 2.2 | W 2.44 | K 3.23 | P 2.96 | V 2.81 | Q 3.21 | L 2.27 | M 2.94 | A 2.95 | G 3.57 | C 2.84 | T 3.23 | I 2.17 | E 3.4 | N 3.15 | H 2.71 | D 3.54 | R 3.21 | S 3.3
P3: I 2.19 | S 1.82 | L 2.13 | M 3.01 | K 2.29 | H 1.54 | Y 1.72 | R 2.05 | T 1.92 | C 2.6 | A 1.66 | N 2.26 | W 1.8 | G 2.13 | F 3.23 | D 2.11 | E 2.31 | Q 1.97 | V 2
S1: W 1.66 | N 2.04 | C 2.29 | M 2 | E 1.52 | G 2.07 | P 2.67 | Q 2.08 | L 3.27 | V 1.38 | R 1.92 | I 2.81 | F 1.67 | Y 1.99 | H 2.07 | D 2.21 | K 1.98 | A 2.11
Q7: P 2.8 | T 1.93 | G 2.22 | N 2.04 | E 2.16 | R 2.02 | F 3.06 | D 2.68 | I 1.4 | K 2.65 | H 2.2 | Y 1.85 | M 1.8 | W 1.73 | S 1.89 | V 2.18 | C 1.96 | L 1.76 | A 2.39

Variants of: B2
Assay: as above
Conditions: c terminus: a fixed tail appended

Protein stability index of substitutions, site by site:
Q24: C 2.57 | F 2.96 | I 3.02 | M 2.56 | S 2.75 | W 2.1 | E 3.44 | N 4.03 | K 4.36 | L 2.79 | T 2.84 | G 3.29 | P 2.6 | D 3.62 | H 2.91 | V 2.61 | Y 2.93 | R 3.48 | A 3.3
K23: W 2.75 | N 3.92 | Y 2.99 | L 2.49 | Q 3.21 | M 3.26 | R 2.95 | T 3.52 | P 3.36 | S 3.16 | V 2.49
